Results from patent publication US10253109 (BLOODWORKS, dated 2019).
Residue numbers refer to the chain shown, from its start. Each block holds one binder with its values, some of them ahead of it.

Tests used:
[1] = target: T1, human Kell glycoprotein, K (KEL1) form (human, UniProt P23276 1-732); assay: flow cytometry on RBCs (FIGS. 7A, 7B)
T1 construct: whole, on cells; also called K form of the Kell glycoprotein; K/K RBCs
T1 sequence (looked up): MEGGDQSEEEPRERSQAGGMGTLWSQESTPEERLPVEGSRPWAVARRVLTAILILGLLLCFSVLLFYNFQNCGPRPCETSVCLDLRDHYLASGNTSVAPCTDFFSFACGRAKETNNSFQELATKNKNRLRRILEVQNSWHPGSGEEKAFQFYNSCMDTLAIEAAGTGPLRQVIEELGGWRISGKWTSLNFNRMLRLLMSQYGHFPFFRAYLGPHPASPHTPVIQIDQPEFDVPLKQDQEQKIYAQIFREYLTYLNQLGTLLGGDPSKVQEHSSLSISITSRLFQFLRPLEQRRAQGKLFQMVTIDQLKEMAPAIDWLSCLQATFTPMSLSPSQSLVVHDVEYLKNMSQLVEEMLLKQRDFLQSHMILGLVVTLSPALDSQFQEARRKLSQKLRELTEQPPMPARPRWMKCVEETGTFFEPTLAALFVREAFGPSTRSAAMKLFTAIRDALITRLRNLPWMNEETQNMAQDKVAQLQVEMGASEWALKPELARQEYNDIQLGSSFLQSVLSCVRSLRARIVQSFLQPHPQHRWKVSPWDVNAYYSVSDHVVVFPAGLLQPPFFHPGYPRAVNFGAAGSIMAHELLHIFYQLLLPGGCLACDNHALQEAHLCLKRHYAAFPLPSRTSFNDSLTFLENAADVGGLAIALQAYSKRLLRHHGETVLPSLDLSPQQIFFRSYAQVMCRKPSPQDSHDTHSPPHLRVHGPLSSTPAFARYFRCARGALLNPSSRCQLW
Protocol: (§1) The specificities of the antibodies are shown in FIGS. 7A, 7B, 8A, 8B, 9A-9C, and 10A-10I. The specificities of the antibodies were determined to be: PUMA1/2 (KEL1 or K), PUMA 3 (a common Kell epitope, PUMA 4 (KEL4 or Kp^b). Flow cytometry was utilized to test antibody specificity by indirect immunofluorescence, using the monocolonal antibodies as the primary reagent and a goat-anti-mouse antibody (conjugated to allophycocyanin) as a secondary antibody. Different target cells expressing different Kell variants were used to determine specificity. Targets included RBCs that phenotyped as homozygous for the 3 main antithetical antigens in the Kell system, K/K, k/k, Kp^b/Kp^b, Kp^a/Kp^a, Js^b/Js^b, Js^a/Js^a. Differential binding to such tarets tests specificity. In the case of PUMA ½, binding was only observed when K was present but not on k/k RBCs. In the case of PUMA 3, binding was observed on all RBCs regardless of phenotype for K/k, Kp^a/Kp^b, or Js^a/Js^b, thus indicating a common epitope outside these systems. However, PUMA 3 bound to only KELL glycoprotein transgenic murine RBCs and not wild-type murine RBCs; thus, the epitope recognized by PUMA 3 is on the KELL molecule, but not K/k, Kp^a/Kp^b, or Js^a/Js^b. For PUMA 4, binding was only observed when Kp^b was present but not on Kp^a/Kp^a RBCs.

[2] = target: T2, human Kell glycoprotein, k (KEL2) form (human, UniProt P23276 1-732); assay: flow cytometry, indirect immunofluorescence on RBCs
T2 construct: also called k form; k/k RBCs
T2 sequence: T1 sequence (looked up) with M193T
Protocol: as §1

[3] = target: T3, human Kell glycoprotein transgene (KEL1, Kp^b, Js^b variants) on murine RBCs (human, UniProt P23276 1-732); assay: in vivo, passive immunization of mice and transfusion of KEL1+ RBCs
T3 construct: whole, on cells; also called KELL glycoprotein transgenic murine RBCs; KEL1+RBCs
T3 sequence (looked up): T1 sequence (looked up)
Protocol: The ability of PUMA1 to induce a HTR was tested by passive immunization of wild-type mice with PUMA1 (by intravenous tail-vein injection), followed by transfusion with murine KEL1+RBCs from KEL1 transgeneic mouse donors. Compared to a control group that got only PBS, PUMA1 caused a brisk clearance of KEL1+RBCs, after which, the surviving RBCs continued to circulate, as is typical of HTRs in both mice and also in humans (FIG. 13). Thus, PUMA1 specifically binds to KEL1 RBCs, in vivo, with sufficient activity to induce an HTR.

[4] = target: T4, human Kell glycoprotein, Kp^a (KEL3) form (human, UniProt P23276 1-732); assay: flow cytometry, indirect immunofluorescence on RBCs
T4 construct: whole, on cells; also called Kp^a/Kp^a RBCs
T4 sequence (looked up): T1 sequence (looked up) with M193T, R281W
Protocol: as §1

[5] = target: T1, human Kell glycoprotein, K (KEL1) form; assay: flow cytometry, indirect immunofluorescence on K/K RBCs
Protocol: as §1

[6] = target: T2, human Kell glycoprotein, k (KEL2) form; assay: flow cytometry, indirect immunofluorescence on k/k RBCs
Protocol: as §1

[7] = target: T3, human Kell glycoprotein transgene …; assay: flow cytometry, indirect immunofluorescence on transgenic murine RBCs
Protocol: as §1

binding result [1]: binds
binding result [2]: no binding
binding result [3]: binds
B1: monoclonal antibody PUMA 1 (antibody, V domains shown)
VH: EVQLQQSGPELVKPGASVKMSCKASGYTFTDYYMKWVKQSHGKSLEWIGDLNPNNGDTFYNQKFKGKATLTVDKSSSTAYIQLNSLTSEDSAVYYCAREAGSSFGSSCNYWGQGTTLTVS
VL: SVVMTQTPKFLLVSAGDRVTITCKASQTVSKDVAWYQQQPGQSPKLLIYYASNRYTGVPDRFTGSGYGTDFTFTISTVQAEDLAVYFCQQDYSSPYTFGGGTKLEIK
notes: also called PUMA 2; Puma 2

binding result [4]: no binding
B2: monoclonal antibody PUMA 4 (antibody, V domains shown)
VH: EVKLEESGGGLVQPGGSMKLSCVASGFTFSNYWMNWVRQPPEKGLEWVAEIRLNSNNYATHYAESVKGKFTISRDDSKSSVYLQMNDLRAEDTGIYYCTRNWDFAWFDSWGQGTLVTVSA
VL: DIVMTQSHKFMSTSVGDRVSITCKASQDVSTVVAWYQQKPGQSPKLLIYWASTRHTGVPDRFTGSGSGTDYTLTISSVQAEDLALYYCQQHYTTPFTFGSGTKLEIK
notes: Mouse monoclonal antibody from hybridoma

binding result [5]: binds
binding result [6]: binds
binding result [7]: binds
B3: monoclonal antibody PUMA 3 (antibody, V domains shown)
VH: QVQLKESGPGLLAPSQSLSITCTVSGFSLTSYGVYWVRQPPGKGLEWLGIIWGDGSTNYQSVLRSRLSITKDDSKSQVFLKLNSLQTDDTATYYCAKRGDYDVAYWGQGTLVTVSA
VL: DIVLTQSPASLAVSLGQRAIISCKASQTVSEVGTSLMHWYQQRPGQQPKLLIYRTSNLEAGVPTRFSGSGSRTDFTLNIHPVEEDDAATYYCQQSREFPWTFGGGTRLEIK
notes: as for B2
